Test results published in US20110218157A1.

Assays:
FcγIIb = FcγIIb (UniProt P31994); assay: reverse ELISA: PAP-IC without peptide on FcγIIb-coated plate
FcγIIIa = FcγIIIa (UniProt P08637); assay: reverse ELISA: PAP-IC without peptide on FcγIIIa-coated plate
[1] = biological target: recombinant TNF-α (Sigma-Aldrich); assay: reverse ELISA: PAP-IC without peptide on TNF-α-coated plate
FcγIIa (R131 allele) = FcγIIa (R131 allele) (UniProt P12318); assay: reverse ELISA: PAP-IC without peptide on FcγIIa (R131)-coated plate

recombinant TNF-α (Sigma-Aldrich), sequence (P01375 77-233): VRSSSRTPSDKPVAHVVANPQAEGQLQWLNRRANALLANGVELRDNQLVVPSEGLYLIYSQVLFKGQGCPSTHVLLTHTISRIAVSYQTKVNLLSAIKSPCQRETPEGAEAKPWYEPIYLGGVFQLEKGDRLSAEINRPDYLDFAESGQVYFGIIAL

- OD405 (FcγIIb): 1.39 OD405
- OD405 (FcγIIIa): 1.59 OD405
- OD405 [1]: 3.18 OD405
- OD405 (FcγIIa (R131 allele)): 1.6 OD405
Substance: peroxidase-rabbit anti-peroxidase IgG immune complex (PAP complex) (from UniProt P00433 31-338)
